According to paper PMC3378519, “Contribution of DEAF1 Structural Domains to the Interaction with the Breast Cancer Oncogene LMO4” (PLoS ONE, 2012):

B1: MBP-fused full length DEAF1, recombinant (natural protein, mouse, UniProt Q9Z1T5-1 1-566, looked up)
chain: MEDSDSAAKQLGLAEAAAVAAAAAVAAAAAAAAESEAEEPVLSRDEDSEEDADSEAERETRRVTAVAVMAAESGHMDMGTEALPSPDEAAAAAAAFAEVTTVTVANVGSSADNVFTTSVANAASISGHVLSGRTALQIGDSLNTEKATLIVVHTDGSIVETTGLKGPAAPLTPGPQSPPTPLAPGQEKGGTKYNWDPSVYDSELPVRCRNISGTLYKSRLGSGGRGRCIKQGENWYSPTEFEAMAGRASSKDWKRSIRYAGRPLQCLIQDGILNPHAASCTCAACCDDMTLSGPVRLFVPYKRRKKENELPTTPVKKDSPKNITLLPATAATTFTVTPSGQITTSGALTFDRASTVEATAVISESPAQGDVFAGATVQEAGVQPPCRVGHPEPHYPGYQDSCQIAPFPEAALPTSHPKIVLTSLPALAVPPSTPTKAVSPTVVSGLEMSEHRSWLYLEEMVNSLLNTAQQLKTLFEQAKQASSCREAAVTQARMQVDTERKEQSCVNCGREAMSECTGCHKVNYCSTFCQRKDWKDHQHVCGQSASVTVQADDVHVEESVIEKVAV
notes: DEAF1, mouse, NM_016874, full length; pMALC2 construct; about 10 subunits by SEC-MALLS, mixture of species; not shown: MBP, N-terminal, kept
B2: GB1-tagged DEAF1_(454–487), isolated coiled coil, recombinant (domain or fragment, mouse, UniProt Q9Z1T5-1 454-487, looked up)
chain: WLYLEEMVNSLLNTAQQLKTLFEQAKQASSCREA
notes: DEAF1, mouse, NM_016874; source: E. coli Rosetta 2, purified (DEAE sepharose, Ni-NTA); not shown: His6, N-terminal, kept; GB1 (Gβ-1 domain of streptococcal protein G), N-terminal, kept
B3: MBP-fused DEAF1_(335–485), recombinant (domain or fragment, mouse, UniProt Q9Z1T5-1 335-485, looked up)
chain: TVTPSGQITTSGALTFDRASTVEATAVISESPAQGDVFAGATVQEAGVQPPCRVGHPEPHYPGYQDSCQIAPFPEAALPTSHPKIVLTSLPALAVPPSTPTKAVSPTVVSGLEMSEHRSWLYLEEMVNSLLNTAQQLKTLFEQAKQASSCR
notes: DEAF1, mouse, NM_016874; pMALC2 construct; not shown: MBP, N-terminal, kept
B4: DEAF1_(404–479), recombinant protein for SEC-MALLS (domain or fragment, mouse, UniProt Q9Z1T5-1 404-479, looked up)
chain: IAPFPEAALPTSHPKIVLTSLPALAVPPSTPTKAVSPTVVSGLEMSEHRSWLYLEEMVNSLLNTAQQLKTLFEQAK
notes: DEAF1, mouse, NM_016874; source: recombinant

Molecular target: the molecule itself
Assay: SEC-MALS; SEC-MALLS; about 200 µg of protein on a Superose 12 column with in-line MALLS detector; weight-averaged molecular weight in solution

Row | Protein | stoichiometry N [subunits] | binding result
1 | B1 | ~10 | –
2 | B2 | 4 | –
3 | B3 | 4 | –
4 | B4 | – | binds
